Values of other authors, collected in PMC5530503.

Molecular target: VEGFR2 (Homo sapiens) (UniProt P35968)
UniProt P35968, sequence (P35968 20-1356): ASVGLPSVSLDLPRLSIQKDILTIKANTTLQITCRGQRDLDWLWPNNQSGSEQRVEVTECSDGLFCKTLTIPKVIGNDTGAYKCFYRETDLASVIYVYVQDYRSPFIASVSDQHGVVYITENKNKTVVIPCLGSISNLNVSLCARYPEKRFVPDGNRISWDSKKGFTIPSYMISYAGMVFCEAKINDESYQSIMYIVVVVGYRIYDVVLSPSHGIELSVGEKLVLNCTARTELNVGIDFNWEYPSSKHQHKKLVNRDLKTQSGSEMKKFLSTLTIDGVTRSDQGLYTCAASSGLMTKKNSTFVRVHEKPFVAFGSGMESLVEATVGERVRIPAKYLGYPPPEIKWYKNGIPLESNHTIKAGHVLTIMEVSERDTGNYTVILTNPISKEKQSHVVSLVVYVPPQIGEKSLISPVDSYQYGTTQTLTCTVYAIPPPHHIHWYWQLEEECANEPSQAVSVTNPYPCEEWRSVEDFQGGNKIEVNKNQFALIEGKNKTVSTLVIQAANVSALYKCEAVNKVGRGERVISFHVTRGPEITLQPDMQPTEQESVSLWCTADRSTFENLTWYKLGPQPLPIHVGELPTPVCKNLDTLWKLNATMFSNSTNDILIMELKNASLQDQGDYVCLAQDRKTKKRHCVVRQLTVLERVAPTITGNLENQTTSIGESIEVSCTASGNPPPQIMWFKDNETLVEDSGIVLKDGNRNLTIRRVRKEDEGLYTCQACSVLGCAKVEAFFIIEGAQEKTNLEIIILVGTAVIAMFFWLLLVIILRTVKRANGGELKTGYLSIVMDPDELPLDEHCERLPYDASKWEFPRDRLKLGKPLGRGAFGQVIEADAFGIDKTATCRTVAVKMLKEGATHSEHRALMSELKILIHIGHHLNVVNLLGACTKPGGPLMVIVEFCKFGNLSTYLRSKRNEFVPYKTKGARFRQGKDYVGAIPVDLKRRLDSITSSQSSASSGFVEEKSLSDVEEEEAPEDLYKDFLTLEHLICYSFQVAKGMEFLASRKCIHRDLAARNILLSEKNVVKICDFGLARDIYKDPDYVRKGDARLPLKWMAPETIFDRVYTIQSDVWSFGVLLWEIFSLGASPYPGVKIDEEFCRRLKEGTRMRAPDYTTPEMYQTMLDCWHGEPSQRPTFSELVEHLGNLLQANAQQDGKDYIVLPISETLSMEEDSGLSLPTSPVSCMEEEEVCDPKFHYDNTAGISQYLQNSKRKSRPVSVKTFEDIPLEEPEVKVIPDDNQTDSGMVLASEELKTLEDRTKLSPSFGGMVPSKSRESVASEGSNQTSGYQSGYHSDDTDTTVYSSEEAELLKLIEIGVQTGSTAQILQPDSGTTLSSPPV

- Kd: 0.037 nM
Substance: VEGF (from UniProt P15692)
